Where no end group is shown, it is not given here.

A word on the Kd: it is a measure of binding affinity in units of concentration.

For test [1], the system named is Bmal1 REV-RE promoter luciferase in HEK293T cells. In words: Bmal1-luciferase transcriptional repression assay. It is filed as cell-based, human. Particulars: for fold repression of Bmal1-luciferase: HEK293T, 24 hours, relative to empty vector, n = 3 independent experiments. The text has this:
The human REV-ERBβ LBD (residues 381 to 579) was previously cloned into the pET46 vector ([18]). The mouse NCoR RID (residues 1942 to 2208 in the X50 splice variant), which has 87% sequence identity to human NCoR RID (100% sequence identity in the ID motifs), was previously cloned into the pET32 vector ([29]). NCoR RID mutants were generated by site-directed mutagenesis: The ID1 CoRNR box motif was mutated from […] to […] (ΔID1 and ΔID1ΔID2), and the ID2 CoRNR box motif was mutated from LEDIIRKAL to TEDTTRKAL (ΔID2 and ΔID1ΔID2), as these mutations were previously reported to disrupt CoRNR box binding ([10], [30]). Heme (Sigma-Aldrich, no. 51280) was prepared either as a 1 mM stock in dimethyl sulfoxide (DMSO) stored at 4°C or 50 mM stock in 0.2 M NaOH (solutions prepared in 0.2 M NaOH were always made fresh immediately before the experiment), where indicated. […] Human embryonic kidney (HEK) 293T cells (American Type Culture Collection, no. CRL-11268) were cultured in Dulbecco’s modified eagle medium (DMEM) supplemented with 10% fetal bovine serum, 2 mM L-glutamine, and 1% penicillin-streptomycin at 37°C and 5% CO2 under standard culture conditions. The pcDNA3.1^+ expression vector containing full-length human REV-ERBβ ([31]) and the pGL3-Bmal1-luciferase construct containing the Bmal1 promoter (−816 to +99 of the mouse Bmal1 promoter region) were used in HEK293T cell transfections. […]
HEK293T cells were plated at 1.5 × 10^3 cells per well in 96-well flat-bottom plates in DMEM 24 hours before transfection. […] Luciferase activity was harvested 24 hours after transfection with Britelite Plus (PerkinElmer) and read using a BioTek Synergy plate reader. Raw luminescence values of REV-ERBβ–transfected wells were normalized to pcDNA3.1 empty vector transfection wells individually for each Bmal1-luciferase construct to determine fold repression by REV-ERBβ for each Bmal1-luciferase construct. […]

The target of test [2] is T1, human REV-ERBβ ligand-binding domain (residues 381 to 579) (human, UniProt Q14995 381-579).
T1 construct: cloned into pET46; Used ligand-free (apo) or loaded with heme (a small molecule; 1.05 to 2 molar equivalents); the two states are told apart by the assays; also called REV-ERBβ LBD; LBD; source: E. coli BL21(DE3), purified (IMAC, 3C protease cleavage, size exclusion); 15N-labelled in M9 minimal media for NMR; not shown: 6xHis, N-terminal, cleaved
T1 sequence (looked up): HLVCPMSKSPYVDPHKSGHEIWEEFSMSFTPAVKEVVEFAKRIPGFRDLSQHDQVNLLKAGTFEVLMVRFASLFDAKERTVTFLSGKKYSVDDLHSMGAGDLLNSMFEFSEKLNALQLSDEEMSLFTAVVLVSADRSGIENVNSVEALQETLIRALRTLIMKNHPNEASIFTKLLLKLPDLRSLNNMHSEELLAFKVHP
In words: ITC; apo LBD (300 μM, syringe; for WT RID 2 × 20 injections of 150 μM) titrated into RID construct (15 μM, cell); 25°C; Hepes assay buffer; WT RID fit to two nonsymmetric sites, microscopic K model; ΔID2 fit to A + B ↔ AB. Particulars: both partners purified. (ITC needs no label: the signal is the heat of the interaction.)

For test [3], the target named is T1, human REV-ERBβ ligand-binding domain …. In words: ITC; heme-bound LBD (300 μM, syringe) titrated into RID construct (15 μM, cell), 4 molar equivalents; 25°C; Hepes assay buffer; WT RID fit to A + B ↔ AB. Particulars: both partners purified.
Test [4] shares this target. Kind of test: ITC; heme-bound LBD (500 μM with 1.05 molar equivalents of heme, syringe) titrated into ID peptide (50 μM, cell); 25°C; 20 mM Hepes pH 7.4, 50 mM KCl, 0.5 mM EDTA, 5 mM TCEP; A + B ↔ AB model in SEDPHAT. The note with it: both partners purified.
For test [5] the target is unchanged. Kind of test: ITC; apo LBD (500 μM, syringe) titrated into ID peptide (50 μM, cell); 25°C; 20 mM Hepes pH 7.4, 50 mM KCl, 0.5 mM EDTA, 5 mM TCEP; A + B ↔ AB model in SEDPHAT. Particulars: both partners purified.

B1: REV-ERBβ: full-length human REV-ERBβ expressed from pcDNA3.1 vector in HEK293T cells (protein)
chain: HLVCPMSKSPYVDPHKSGHEIWEEFSMSFTPAVKEVVEFAKRIPGFRDLSQHDQVNLLKAGTFEVLMVRFASLFDAKERTVTFLSGKKYSVDDLHSMGAGDLLNSMFEFSEKLNALQLSDEEMSLFTAVVLVSADRSGIENVNSVEALQETLIRALRTLIMKNHPNEASIFTKLLLKLPDLRSLNNMHSEELLAFKVHP
modifications: left off: 6xHis, N-terminal, cleaved
notes: full-length human REV-ERBβ expressed from pcDNA3.1 vector in HEK293T cells
Turning to B1, the “fold repression of Bmal1-luciferase” value in test [1] (WT Bmal1 construct) is listed as “approximately ninefold”; in test [1] (mutant Bmal1 constructs (one or both DNA binding sites within REV-RE mutated)), “approximately threefold”. In addition, the “reduction of repression in mutant vs WT Bmal1 constructs” value in test [1] (pRORE, dRORE or p/dRORE mutants vs WT, ***P < 0.001 by Student's t test) is listed as “more than half”.

B2: mouse NCoR RID ΔID2 mutant (domain or fragment)
chain: QVPRTHRLITLADHICQIITQDFARNQVPSQASTSTFQTSPSALSSTPVRTKTSSRYSPESQSQTVLHPRPGPRVSPENLVDKSRGSRPGKSPERSHIPSEPYEPISPPQGPAVHEKQDSMLLLSQRGVDPAEQRSDSRSPGSISYLPSFFTKLESTSPMVKSKKQEIFRKLNSSGGGDSDMAAAQPGTEIFNLPAVTTSGAVSSRSHSFADPASNLGTEDTTRKALMGSFDDKVEDHGVVMSHPVGIMPGSASTSVVTSSEARRDE
Regarding B2, the equilibrium dissociation constant (Kd) in test [2] worked out at 130 nM.

B3: mouse NCoR receptor interaction domain (residues 1942 to 2208 in the X50 splice variant), wild type (domain or fragment)
chain: QVPRTHRLITLADHICQIITQDFARNQVPSQASTSTFQTSPSALSSTPVRTKTSSRYSPESQSQTVLHPRPGPRVSPENLVDKSRGSRPGKSPERSHIPSEPYEPISPPQGPAVHEKQDSMLLLSQRGVDPAEQRSDSRSPGSISYLPSFFTKLESTSPMVKSKKQEIFRKLNSSGGGDSDMAAAQPGTEIFNLPAVTTSGAVSSRSHSFADPASNLGLEDIIRKALMGSFDDKVEDHGVVMSHPVGIMPGSASTSVVTSSEARRDE
With B3, the Kd in test [3] amounted to 99 nM.

B4: NCoR ID1 peptide (peptide)
peptide: RTHRLITLADHICQIITQDFARN
modifications: not fully specified
notes: source: synthetic peptide, bought: LifeTein
As to B4, the Kd in test [4] came to 2400 nM; in test [5] it was 490 nM.

B5: NCoR ID2 peptide (peptide)
peptide: DPASNLGLEDIIRKALMGSFDDK
modifications: not fully specified
notes: as for B4
In the case of B5, the equilibrium dissociation constant (Kd) in test [5] worked out at 84000 nM.

The values are drawn from paper PMC7840129, “Structural basis for heme-dependent NCoR binding to the transcriptional repressor REV-ERBβ” (Science Advances, 2021).
